# Data taken from IntAct's records for PubMed 35512704.
# B1: Speckle-type POZ protein (Homo sapiens), O43791 (parent)
# chain: MSRVPSPPPPAEMSSGPVAESWCYTQIKVVKFSYMWTINNFSFCREEMGEVIKSSTFSSGANDKLKWCLRVNPKGLDEESKDYLSLYLLLVSCPKSEVRAKFKFSILNAKGEETKAMESQRAYRFVQGKDWGFKKFIRRDFLLDEANGLLPDDKLTLFCEVSVVQDSVNISGQNTMNMVKVPECRLADELGGLWENSRFTDCCLCVAGQEFQAHKAILAARSPVFSAMFEHEMEESKKNRVEINDVEPEVFKEMMCFIYTGKAPNLDKMADDLLAAADKYALERLKVMCEDALCSNLSVENAAEILILADLHSADQLKTQAVDFINYHASDVLETSGWKSMVVSHPHLVAEAYRSLASAQCPFLGPPRKRLKQS
# partner: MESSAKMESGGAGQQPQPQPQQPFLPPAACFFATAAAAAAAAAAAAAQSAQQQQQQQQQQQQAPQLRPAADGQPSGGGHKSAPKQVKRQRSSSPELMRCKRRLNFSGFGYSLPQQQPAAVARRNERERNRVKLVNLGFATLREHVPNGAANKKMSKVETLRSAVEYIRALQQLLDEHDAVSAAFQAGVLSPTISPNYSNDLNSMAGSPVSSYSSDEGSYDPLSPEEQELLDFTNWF
# B2: Speckle-type POZ protein (Homo sapiens), O43791 (parent)
# chain: B1 chain
# partner: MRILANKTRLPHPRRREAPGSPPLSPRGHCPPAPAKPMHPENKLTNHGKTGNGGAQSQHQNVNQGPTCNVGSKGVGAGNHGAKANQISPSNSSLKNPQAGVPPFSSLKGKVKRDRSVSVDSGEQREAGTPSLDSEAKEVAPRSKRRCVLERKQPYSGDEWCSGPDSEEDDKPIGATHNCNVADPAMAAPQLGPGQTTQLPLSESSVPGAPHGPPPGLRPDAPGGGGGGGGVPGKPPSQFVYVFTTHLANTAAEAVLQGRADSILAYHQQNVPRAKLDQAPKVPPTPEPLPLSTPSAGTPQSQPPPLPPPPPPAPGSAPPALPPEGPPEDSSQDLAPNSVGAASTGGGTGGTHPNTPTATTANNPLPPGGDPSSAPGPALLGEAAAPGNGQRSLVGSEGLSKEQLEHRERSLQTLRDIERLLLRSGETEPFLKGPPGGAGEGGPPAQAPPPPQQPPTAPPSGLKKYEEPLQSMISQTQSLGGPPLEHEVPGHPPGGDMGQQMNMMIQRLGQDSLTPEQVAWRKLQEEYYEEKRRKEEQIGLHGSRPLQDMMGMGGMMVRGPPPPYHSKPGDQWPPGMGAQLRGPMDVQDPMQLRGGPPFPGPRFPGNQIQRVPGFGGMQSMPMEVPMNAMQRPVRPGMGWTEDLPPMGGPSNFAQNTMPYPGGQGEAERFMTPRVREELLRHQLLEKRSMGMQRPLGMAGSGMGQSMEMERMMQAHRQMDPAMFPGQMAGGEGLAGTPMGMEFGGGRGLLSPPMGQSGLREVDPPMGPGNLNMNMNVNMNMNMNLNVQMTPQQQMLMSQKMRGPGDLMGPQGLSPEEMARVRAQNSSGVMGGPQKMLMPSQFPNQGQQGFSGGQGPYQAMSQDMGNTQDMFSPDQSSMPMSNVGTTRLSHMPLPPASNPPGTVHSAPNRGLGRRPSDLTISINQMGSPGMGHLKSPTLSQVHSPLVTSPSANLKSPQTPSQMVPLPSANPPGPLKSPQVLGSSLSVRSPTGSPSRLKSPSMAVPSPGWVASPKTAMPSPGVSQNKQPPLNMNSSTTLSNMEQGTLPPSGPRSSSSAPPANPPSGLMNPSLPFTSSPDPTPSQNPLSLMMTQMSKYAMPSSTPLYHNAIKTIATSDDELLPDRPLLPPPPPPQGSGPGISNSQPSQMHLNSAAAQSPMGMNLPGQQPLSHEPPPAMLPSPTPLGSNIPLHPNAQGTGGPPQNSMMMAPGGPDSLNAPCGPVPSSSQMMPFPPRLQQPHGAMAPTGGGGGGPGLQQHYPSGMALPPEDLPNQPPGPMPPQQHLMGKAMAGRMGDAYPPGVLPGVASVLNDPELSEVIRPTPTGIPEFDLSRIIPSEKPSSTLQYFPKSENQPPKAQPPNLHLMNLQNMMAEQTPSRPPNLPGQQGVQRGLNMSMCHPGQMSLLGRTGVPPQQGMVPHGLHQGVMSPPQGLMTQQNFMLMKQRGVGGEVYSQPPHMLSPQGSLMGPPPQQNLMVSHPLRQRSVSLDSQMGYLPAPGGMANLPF
# B3: Speckle-type POZ protein (Homo sapiens), O43791 (parent)
# chain: B1 chain
# partner: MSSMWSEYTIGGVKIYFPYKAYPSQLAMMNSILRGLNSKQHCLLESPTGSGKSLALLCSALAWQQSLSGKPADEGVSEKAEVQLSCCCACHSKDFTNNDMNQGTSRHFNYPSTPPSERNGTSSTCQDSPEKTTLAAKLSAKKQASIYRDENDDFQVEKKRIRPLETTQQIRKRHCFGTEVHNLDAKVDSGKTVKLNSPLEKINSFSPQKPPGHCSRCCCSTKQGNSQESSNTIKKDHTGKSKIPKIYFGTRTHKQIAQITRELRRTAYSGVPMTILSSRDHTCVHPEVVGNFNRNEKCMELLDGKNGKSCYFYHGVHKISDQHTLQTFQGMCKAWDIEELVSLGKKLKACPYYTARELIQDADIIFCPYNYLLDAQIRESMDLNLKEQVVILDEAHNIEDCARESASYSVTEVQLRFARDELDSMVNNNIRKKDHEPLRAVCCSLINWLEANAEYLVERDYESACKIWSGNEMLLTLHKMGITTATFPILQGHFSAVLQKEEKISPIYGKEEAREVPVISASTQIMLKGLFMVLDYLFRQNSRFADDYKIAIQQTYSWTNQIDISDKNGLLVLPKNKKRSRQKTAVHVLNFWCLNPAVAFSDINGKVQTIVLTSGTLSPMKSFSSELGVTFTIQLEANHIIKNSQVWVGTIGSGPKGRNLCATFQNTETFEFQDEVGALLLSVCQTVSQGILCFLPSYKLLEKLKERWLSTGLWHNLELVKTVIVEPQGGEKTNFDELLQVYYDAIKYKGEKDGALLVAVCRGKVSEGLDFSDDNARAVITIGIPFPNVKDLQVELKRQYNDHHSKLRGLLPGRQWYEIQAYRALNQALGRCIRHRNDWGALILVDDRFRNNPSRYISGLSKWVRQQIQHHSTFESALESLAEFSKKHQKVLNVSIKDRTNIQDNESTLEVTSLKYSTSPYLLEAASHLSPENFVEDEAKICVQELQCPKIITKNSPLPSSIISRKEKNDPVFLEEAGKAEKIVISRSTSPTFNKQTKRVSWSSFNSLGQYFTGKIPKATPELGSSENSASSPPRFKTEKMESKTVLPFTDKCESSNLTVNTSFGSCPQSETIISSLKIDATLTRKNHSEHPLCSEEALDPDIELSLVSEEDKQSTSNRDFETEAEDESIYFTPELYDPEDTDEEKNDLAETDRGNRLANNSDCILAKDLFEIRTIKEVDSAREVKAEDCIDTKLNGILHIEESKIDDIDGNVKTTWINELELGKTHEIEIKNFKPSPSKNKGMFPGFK
# B4: Speckle-type POZ protein (Homo sapiens), O43791 (parent)
# chain: B1 chain
# partner: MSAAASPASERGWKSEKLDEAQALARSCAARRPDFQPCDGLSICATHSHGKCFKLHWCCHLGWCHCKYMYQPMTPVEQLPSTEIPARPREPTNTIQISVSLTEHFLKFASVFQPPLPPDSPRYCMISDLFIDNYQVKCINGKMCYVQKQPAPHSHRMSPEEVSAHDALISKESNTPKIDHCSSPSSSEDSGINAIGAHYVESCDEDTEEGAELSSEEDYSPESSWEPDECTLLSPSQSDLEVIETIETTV
# B5: Speckle-type POZ protein (Homo sapiens), O43791 (parent)
# chain: B1 chain
# partner: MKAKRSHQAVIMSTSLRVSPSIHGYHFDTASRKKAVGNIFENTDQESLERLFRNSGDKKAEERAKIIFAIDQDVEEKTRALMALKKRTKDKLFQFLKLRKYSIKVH
# B6: Speckle-type POZ protein (Homo sapiens), O43791 (parent)
# chain: B1 chain
# partner: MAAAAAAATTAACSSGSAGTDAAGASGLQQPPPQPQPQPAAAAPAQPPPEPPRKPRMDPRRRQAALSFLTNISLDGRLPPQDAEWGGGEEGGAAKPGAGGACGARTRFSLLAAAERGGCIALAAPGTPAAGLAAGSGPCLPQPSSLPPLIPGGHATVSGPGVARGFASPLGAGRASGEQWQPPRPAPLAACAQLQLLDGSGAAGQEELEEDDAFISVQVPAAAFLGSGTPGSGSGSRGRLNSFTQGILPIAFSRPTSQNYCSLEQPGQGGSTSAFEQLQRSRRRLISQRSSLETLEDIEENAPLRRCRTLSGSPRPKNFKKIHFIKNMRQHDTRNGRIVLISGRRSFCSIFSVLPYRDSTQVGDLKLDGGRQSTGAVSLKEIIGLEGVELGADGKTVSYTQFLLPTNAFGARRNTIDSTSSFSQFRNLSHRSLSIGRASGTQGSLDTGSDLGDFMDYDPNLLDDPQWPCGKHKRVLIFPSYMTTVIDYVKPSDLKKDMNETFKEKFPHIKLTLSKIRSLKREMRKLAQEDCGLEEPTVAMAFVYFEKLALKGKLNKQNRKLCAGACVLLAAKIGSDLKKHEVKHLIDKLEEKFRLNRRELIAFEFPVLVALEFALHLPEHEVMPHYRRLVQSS
# Variants of: B1
# Conditions: with ascl1_human ASCL1, P50553
row,Variant,effect of a mutation on the interaction
1,F133L,with no effect

# Variants of: B1
# Conditions: with ascl1_human ASCL1, P50553
# Remark: another data set of the same source
row,Variant,effect of a mutation on the interaction
1,Y87C,with no effect

# Variants of: B1
# Conditions: with ascl1_human ASCL1, P50553
# Remark: another data set of the same source
row,Variant,effect of a mutation on the interaction
1,F133V,with no effect

# Variants of: B2
# Conditions: with bcl9l_human BCL9L
row,Variant,effect of a mutation on the interaction
1,F102C,with no effect

# Variants of: B2
# Conditions: with bcl9l_human BCL9L
# Remark: another data set of the same source
row,Variant,effect of a mutation on the interaction
1,F133L,with no effect

# Variants of: B2
# Conditions: with bcl9l_human BCL9L
# Remark: another data set of the same source
row,Variant,effect of a mutation on the interaction
1,Y87C,with no effect

# Variants of: B2
# Conditions: with bcl9l_human BCL9L
# Remark: another data set of the same source
row,Variant,effect of a mutation on the interaction
1,F133V,with no effect

# Variants of: B3
# Conditions: with fancj_human BRIP1, Q9BX63
row,Variant,effect of a mutation on the interaction
1,F102C,with no effect

# Variants of: B3
# Conditions: with fancj_human BRIP1, Q9BX63
# Remark: another data set of the same source
row,Variant,effect of a mutation on the interaction
1,F133L,with no effect

# Variants of: B3
# Conditions: with fancj_human BRIP1, Q9BX63
# Remark: another data set of the same source
row,Variant,effect of a mutation on the interaction
1,Y87C,with no effect

# Variants of: B3
# Conditions: with fancj_human BRIP1, Q9BX63
# Remark: another data set of the same source
row,Variant,effect of a mutation on the interaction
1,F133V,with no effect

# Variants of: B4
# Conditions: with cc070_human C3orf70, A6NLC5
row,Variant,effect of a mutation on the interaction
1,F102C,with no effect

# Variants of: B4
# Conditions: with cc070_human C3orf70, A6NLC5
# Remark: another data set of the same source
row,Variant,effect of a mutation on the interaction
1,F133L,with no effect

# Variants of: B4
# Conditions: with cc070_human C3orf70, A6NLC5
# Remark: another data set of the same source
row,Variant,effect of a mutation on the interaction
1,Y87C,with no effect

# Variants of: B4
# Conditions: with cc070_human C3orf70, A6NLC5
# Remark: another data set of the same source
row,Variant,effect of a mutation on the interaction
1,F133V,with no effect

# Variants of: B5
# Conditions: with tcim_human TCIM
row,Variant,effect of a mutation on the interaction
1,F102C,with no effect

# Variants of: B5
# Conditions: with tcim_human TCIM
# Remark: another data set of the same source
row,Variant,effect of a mutation on the interaction
1,F133L,with no effect

# Variants of: B5
# Conditions: with tcim_human TCIM
# Remark: another data set of the same source
row,Variant,effect of a mutation on the interaction
1,Y87C,with no effect

# Variants of: B5
# Conditions: with tcim_human TCIM
# Remark: another data set of the same source
row,Variant,effect of a mutation on the interaction
1,F133V,with no effect

# Variants of: B6
# Conditions: with cabl1_human CABLES1, Q8TDN4
row,Variant,effect of a mutation on the interaction
1,F102C,with no effect

# Variants of: B6
# Conditions: with cabl1_human CABLES1, Q8TDN4
# Remark: another data set of the same source
row,Variant,effect of a mutation on the interaction
1,F133L,with no effect

# Variants of: B6
# Conditions: with cabl1_human CABLES1, Q8TDN4
# Remark: another data set of the same source
row,Variant,effect of a mutation on the interaction
1,Y87C,with no effect

# Variants of: B6
# Conditions: with cabl1_human CABLES1, Q8TDN4
# Remark: another data set of the same source
row,Variant,effect of a mutation on the interaction
1,F133V,with no effect
